{"source": "FireProtDB (doi:10.1016/j.jmb.2006.03.027)", "conditions": "Saccharomyces cerevisiae (strain ATCC 204508 / S288c); pH 7; Thermal; CD; potassium phosphate 25 mM; reversible: Yes; whole UniProt chain shown", "note": "Several values for one entry are separate records, joined by “and”; a condition that tells them apart may be missing. Equal values may be shown once."}
{"protein": "GrpE protein homolog, mitochondrial wild type, P38523 (protein) MRAFSAATVRATTRKSFIPMAPRTPFVTPSFTKNVGSMRRMRFYSDEAKSEESKENNEDLTEEQSEIKKLESQLSAKTKEASELKDRLLRSVADFRNLQQVTKKDIQKAKDFALQKFAKDLLESVDNFGHALNAFKEEDLQKSKEISDLYTGVRMTRDVFENTLRKHGIEKLDPLGEPFDPNKHEATFELPQPDKEPGTVFHVQQLGFTLNDRVIRPAKVGIVKGEEN", "values": [{"measurement": "Tm", "value": "53.2 °C and 52.5 °C and 52.4 °C"}]}
